Source: article PMC4394509

What was measured:
Experiment in all cases: FRET or BRET; acceptor-bleaching FRET at kinetochores of transfected human cells (HeLa, HEp-2, U2OS), in vivo or in situ; donor EGFP, acceptor mCherry; E_FRET of a bleached region compared with EVAR of an unbleached region
[1] = biological target: CENP-S-mCherry (UniProt Q8N2Z9)
[2] = biological target: mCherry-CENP-S (UniProt Q8N2Z9)
[3] = biological target: mCherry-H3.1 (human) (UniProt P68431)
[4] = biological target: mCherry-CENP-B (UniProt P07199)
[5] = biological target: CENP-B-mCherry (UniProt P07199)
[6] = biological target: EGFP-CENP-U (UniProt Q71F23)
UniProt Q71F23, sequence (Q71F23 whole entry): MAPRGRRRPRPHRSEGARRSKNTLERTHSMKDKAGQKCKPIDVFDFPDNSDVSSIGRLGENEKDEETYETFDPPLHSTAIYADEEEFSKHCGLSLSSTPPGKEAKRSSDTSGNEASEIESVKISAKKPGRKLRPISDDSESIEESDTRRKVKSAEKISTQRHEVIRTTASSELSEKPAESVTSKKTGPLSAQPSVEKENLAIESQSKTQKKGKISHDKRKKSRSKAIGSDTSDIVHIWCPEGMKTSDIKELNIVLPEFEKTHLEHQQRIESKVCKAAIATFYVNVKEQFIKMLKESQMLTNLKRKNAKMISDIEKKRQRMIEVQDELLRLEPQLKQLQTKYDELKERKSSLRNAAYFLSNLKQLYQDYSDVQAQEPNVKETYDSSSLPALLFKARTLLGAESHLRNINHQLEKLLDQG

Work on “CENP-M-EGFP (from UniProt Q9NSP4 1-180) (natural protein)” yielded a mean E FRET % [1] of 3.49%, a ΔE % [1] of 3.91% and a mean E FRET % [2] of 4%. It also gave a ΔE % [2] of 4.78%.
Substance “CENP-W-EGFP (from UniProt Q5EE01 1-88) (natural protein)” has a mean E FRET % [3] of 3.7%, a ΔE % [3] of 5.8% and a mean E FRET % [4] of 5.07%. The ΔE % [4] was 4.4%.
Substance “EGFP-CENP-W (from UniProt Q5EE01 1-88) (natural protein)” has a mean E FRET % [5] of 4.37% and a ΔE % [5] of 3.6%.
Substance “CENP-M-mCherry (from UniProt Q9NSP4 1-180) (natural protein)” has a mean E FRET % [6] of 6.08% and a ΔE % [6] of 7.86%.
